Test results published in publication doi:10.1101/2025.05.16.654599 (bioRxiv, 2025).

T1: mNeon PPM1H (human, UniProt Q9ULR3 1-514)
T1 construct: PPM1H phosphatase, human, full length; mNeon inserted into loop 1 (residues 115-133) at position 125; mNeon is the fluorophore read in MST; not measured here; also called HisSUMO-mNeon PPM1H; His SUMO mNeon PPM1H; not shown: His-SUMO, N-terminal, cleaved; mNeon, internal (in loop 1 at position 125), kept
T1 sequence (looked up): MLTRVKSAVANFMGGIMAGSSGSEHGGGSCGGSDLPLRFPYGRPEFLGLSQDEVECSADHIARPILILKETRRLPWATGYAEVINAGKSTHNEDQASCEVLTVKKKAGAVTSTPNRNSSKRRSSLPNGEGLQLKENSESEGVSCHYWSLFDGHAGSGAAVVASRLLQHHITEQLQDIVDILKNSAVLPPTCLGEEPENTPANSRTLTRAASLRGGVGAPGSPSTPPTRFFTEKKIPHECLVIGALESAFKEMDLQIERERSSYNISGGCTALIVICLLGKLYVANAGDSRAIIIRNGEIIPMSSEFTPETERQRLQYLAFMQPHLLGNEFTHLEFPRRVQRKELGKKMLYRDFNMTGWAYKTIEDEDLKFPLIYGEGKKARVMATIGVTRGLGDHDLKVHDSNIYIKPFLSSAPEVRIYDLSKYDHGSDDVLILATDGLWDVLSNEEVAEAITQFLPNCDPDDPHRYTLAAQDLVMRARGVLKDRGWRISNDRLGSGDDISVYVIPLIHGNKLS


What was measured:
mNeon PPM1H (human) = mNeon PPM1H (human) (UniProt Q9ULR3); assay: MST; unlabeled Rab titrated (16 serial dilutions) against 100 nM fluorescent mNeon PPM1H form; Monolith NT.115; 30 min in the dark in a reaction buffer; 3 independent measurements with different protein preparations
mNeon PPM1H = molecular target: T1, mNeon PPM1H; assay: as above; details: both partners purified

Molecule | Kd (mNeon PPM1H (human)) | Kd (mNeon PPM1H)
Rab12 (Q101L) full length (from UniProt Q6IQ22-2 1-244) (natural protein) | 7400 nM | 
His Rab8A (Q67L) full length (natural protein, human, UniProt P61006 1-207, looked up, Printed both as 'His Rab8A' and 'Rab8A-6XHis'; also called Rab8A-6XHis; non-phosphorylated Rab8A) MAKTYDYLFKLLLIGDSGVGKTCVLFRFSEDAFNSTFISTIGIDFKIRTIELDGKRIKLQIWDTAGLERFRTITTAYYRGAMGIMLVYDITNEKSFDNIRNWIRNIEEHASADVEKMILGNKCDVNDKRQVSKERGEKLALDYGIKFMETSAKANINVENAFFTLARDIKAKMDKKLEGNSPQGSNQGVKITPDQQKRSSFFRCVLL |  | 1400 ± 980 nM
thio-phosphorylated Rab8A (natural protein, human, UniProt P61006 1-207, looked up, thio-phosphorylated with ATPγS by MST3 kinase (residue not given); fully modified by PhosTag gel, Rab8A GTPase, human, full length, non-prenylated, Q67L, thio-phosphorylated; Removal of His-MST3 before MST is not described for this preparation; also called thio-pRab8A; His pRab8A Q67L; source: E. coli, purified His Rab8A Q67L, then incubated overnight at 4°C with His-MST3 kinase and 2 mM ATPγS) MAKTYDYLFKLLLIGDSGVGKTCVLFRFSEDAFNSTFISTIGIDFKIRTIELDGKRIKLQIWDTAGLERFRTITTAYYRGAMGIMLVYDITNEKSFDNIRNWIRNIEEHASADVEKMILGNKCDVNDKRQVSKERGEKLALDYGIKFMETSAKANINVENAFFTLARDIKAKMDKKLEGNSPQGSNQGVKITPDQQKRSSFFRCVLL |  | 990 ± 630 nM
Rab10 (Q68L) full length (natural protein, human, UniProt P61026 1-200, looked up, also called His SUMO Rab10 (Q68L); non-phosphorylated Rab10; not shown: His-SUMO, N-terminal, cleaved) MAKKTYDLLFKLLLIGDSGVGKTCVLFRFSDDAFNTTFISTIGIDFKIKTVELQGKKIKLQIWDTAGLERFHTITTSYYRGAMGIMLVYDITNGKSFENISKWLRNIDEHANEDVERMLLGNKCDMDDKRVVPKGKGEQIAREHGIRFFETSAKANINIEKAFLTLAEDILRKTPVKEPNSENVDISSGGGVTGWKSKCC |  | 1300 ± 900 nM
